Results published in publication PMC11574045, “A cofactor-induced repressive type of transcription factor condensation can be induced by synthetic peptides to suppress tumorigenesis” (The EMBO Journal, 2024).

B1: YAF2 (protein, UniProt Q8IY57 1-180, looked up)
YY1-associated factor 2: MGDKKSPTRPKRQPKPSSDEGYWDCSVCTFRNSAEAFKCMMCDVRKGTSTRKPRPVSQLVAQQVTQQFVPPTQSKKEKKDKVEKEKSEKETTSKKNSHKKTRPRLKNVDRSSAQHLEVTVGDLTVIITDFKEKTKSPPASSAASADQHSQSGSSSDNTERGMSRSSSPRGEASSLNGESH
B2: XBP1 (protein, UniProt P17861 1-261, looked up)
X-box-binding protein 1: MVVVAAAPNPADGTPKVLLLSGQPASAAGAPAGQALPLMVPAQRGASPEAASGGLPQARKRQRLTHLSPEEKALRRKLKNRVAAQTARDRKKARMSELEQQVVDLEEENQKLLLENQLLREKTHGLVVENQELRQRLGMDALVAEEEAEAKGNEVRPVAGSAESAALRLRAPLQQVQAQLSPLQNISPWILAVLTLQIQSLISCWAFWTTWTQSCSSNALPQSLPAWRSSQRSTQKDPVPYQPPFLCQWGRHQPSWKPLMN
B3: C1D (protein, UniProt Q13901 1-141, looked up)
Nuclear nucleic acid-binding …: MAGEEINEDYPVEIHEYLSAFENSIGAVDEMLKTMMSVSRNELLQKLDPLEQAKVDLVSAYTLNSMFWVYLATQGVNPKEHPVKQELERIRVYMNRVKEITDKKKAGKLDRGAASRFVKNALWEPKSKNASKVANKGKSKS
B4: ZBED2 (protein, UniProt Q9BTP6 1-218, looked up)
Zinc finger BED …: MMRREDEEEEGTMMKAKGDLEMKEEEEISETGELVGPFVSAMPTPMPHNKGTRFSEAWEYFHLAPARAGHHPNQYATCRLCGRQVSRGPGVNVGTTALWKHLKSMHREELEKSGHGQAGQRQDPRPHGPQLPTGIEGNWGRLLEQVGTMALWASQREKEVLRRERAVEWRERAVEKRERALEEVERAILEMKWKVRAEKEACQREKELPAAVHPFHFV
B5: VAX2 (protein, UniProt Q9UIW0 1-290, looked up)
Ventral anterior homeobox 2: MGDGGAERDRGPARRAESGGGGGRCGDRSGAGDLRADGGGHSPTEVAGTSASSPAGSRESGADSDGQPGPGEADHCRRILVRDAKGTIREIVLPKGLDLDRPKRTRTSFTAEQLYRLEMEFQRCQYVVGRERTELARQLNLSETQVKVWFQNRRTKQKKDQSRDLEKRASSSASEAFATSNILRLLEQGRLLSVPRAPSLLALTPSLPGLPASHRGTSLGDPRNSSPRLNPLSSASASPPLPPPLPAVCFSSAPLLDLPAGYELGSSAFEPYSWLERKVGSASSCKKANT
B6: ZBTB17 (protein, UniProt Q13105 1-803, looked up)
Zinc finger and BTB …: MDFPQHSQHVLEQLNQQRQLGLLCDCTFVVDGVHFKAHKAVLAACSEYFKMLFVDQKDVVHLDISNAAGLGQVLEFMYTAKLSLSPENVDDVLAVATFLQMQDIITACHALKSLAEPATSPGGNAEALATEGGDKRAKEEKVATSTLSRLEQAGRSTPIGPSRDLKEERGGQAQSAASGAEQTEKADAPREPPPVELKPDPTSGMAAAEAEAALSESSEQEMEVEPARKGEEEQKEQEEQEEEGAGPAEVKEEGSQLENGEAPEENENEESAGTDSGQELGSEARGLRSGTYGDRTESKAYGSVIHKCEDCGKEFTHTGNFKRHIRIHTGEKPFSCRECSKAFSDPAACKAHEKTHSPLKPYGCEECGKSYRLISLLNLHKKRHSGEARYRCEDCGKLFTTSGNLKRHQLVHSGEKPYQCDYCGRSFSDPTSKMRHLETHDTDKEHKCPHCDKKFNQVGNLKAHLKIHIADGPLKCRECGKQFTTSGNLKRHLRIHSGEKPYVCIHCQRQFADPGALQRHVRIHTGEKPCQCVMCGKAFTQASSLIAHVRQHTGEKPYVCERCGKRFVQSSQLANHIRHHDNIRPHKCSVCSKAFVNVGDLSKHIIIHTGEKPYLCDKCGRGFNRVDNLRSHVKTVHQGKAGIKILEPEEGSEVSVVTVDDMVTLATEALAATAVTQLTVVPVGAAVTADETEVLKAEISKAVKQVQEEDPNTHILYACDSCGDKFLDANSLAQHVRIHTAQALVMFQTDADFYQQYGPGGTWPAGQVLQAGELVFRPRDGAEGQPALAETSPTAPECPPPAE
B7: USP22 (protein, UniProt Q9UPT9 1-525, looked up)
Ubiquitin carboxyl-terminal …: MVSRPEPEGEAMDAELAVAPPGCSHLGSFKVDNWKQNLRAIYQCFVWSGTAEARKRKAKSCICHVCGVHLNRLHSCLYCVFFGCFTKKHIHEHAKAKRHNLAIDLMYGGIYCFLCQDYIYDKDMEIIAKEEQRKAWKMQGVGEKFSTWEPTKRELELLKHNPKRRKITSNCTIGLRGLINLGNTCFMNCIVQALTHTPLLRDFFLSDRHRCEMQSPSSCLVCEMSSLFQEFYSGHRSPHIPYKLLHLVWTHARHLAGYEQQDAHEFLIAALDVLHRHCKGDDNGKKANNPNHCNCIIDQIFTGGLQSDVTCQVCHGVSTTIDPFWDISLDLPGSSTPFWPLSPGSEGNVVNGESHVSGTTTLTDCLRRFTRPEHLGSSAKIKCSGCHSYQESTKQLTMKKLPIVACFHLKRFEHSAKLRRKITTYVSFPLELDMTPFMASSKESRMNGQYQQPTDSLNNDNKYSLFAVVNHQGTLESGHYTSFIRQHKDQWFKCDDAIITKASIKDVLDSEGYLLFYHKQFLEYE
B8: UBTF (protein, UniProt P17480 1-764, looked up)
Nucleolar transcription …: MNGEADCPTDLEMAAPKGQDRWSQEDMLTLLECMKNNLPSNDSSKFKTTESHMDWEKVAFKDFSGDMCKLKWVEISNEVRKFRTLTELILDAQEHVKNPYKGKKLKKHPDFPKKPLTPYFRFFMEKRAKYAKLHPEMSNLDLTKILSKKYKELPEKKKMKYIQDFQREKQEFERNLARFREDHPDLIQNAKKSDIPEKPKTPQQLWYTHEKKVYLKVRPDATTKEVKDSLGKQWSQLSDKKRLKWIHKALEQRKEYEEIMRDYIQKHPELNISEEGITKSTLTKAERQLKDKFDGRPTKPPPNSYSLYCAELMANMKDVPSTERMVLCSQQWKLLSQKEKDAYHKKCDQKKKDYEVELLRFLESLPEEEQQRVLGEEKMLNINKKQATSPASKKPAQEGGKGGSEKPKRPVSAMFIFSEEKRRQLQEERPELSESELTRLLARMWNDLSEKKKAKYKAREAALKAQSERKPGGEREERGKLPESPKRAEEIWQQSVIGDYLARFKNDRVKALKAMEMTWNNMEKKEKLMWIKKAAEDQKRYERELSEMRAPPAATNSSKKMKFQGEPKKPPMNGYQKFSQELLSNGELNHLPLKERMVEIGSRWQRISQSQKEHYKKLAEEQQKQYKVHLDLWVKSLSPQDRAAYKEYISNKRKSMTKLRGPNPKSSRTTLQSKSESEEDDEEDEDDEDEDEEEEDDENGDSSEDGGDSSESSSEDESEDGDENEEDDEDEDDDEDDDEDEDNESEGSSSSSSSSGDSSDSDSN
B9: C16orf5 (protein, UniProt Q9H305 1-208, looked up)
Cell death-inducing …: MSSEPPPPYPGGPTAPLLEEKSGAPPTPGRSSPAVMQPPPGMPLPPADIGPPPYEPPGHPMPQPGFIPPHMSADGTYMPPGFYPPPGPHPPMGYYPPGPYTPGPYPGPGGHTATVLVPSGAATTVTVLQGEIFEGAPVQTVCPHCQQAITTKISYEIGLMNFVLGFFCCFMGCDLGCCLIPCLINDFKDVTHTCPSCKAYIYTYKRLC
B10: USP49 (protein, UniProt Q70CQ1 1-688, looked up)
Ubiquitin carboxyl-terminal …: MDRCKHVGRLRLAQDHSILNPQKWCCLECATTESVWACLKCSHVACGRYIEDHALKHFEETGHPLAMEVRDLYVFCYLCKDYVLNDNPEGDLKLLRSSLLAVRGQKQDTPVRRGRTLRSMASGEDVVLPQRAPQGQPQMLTALWYRRQRLLARTLRLWFEKSSRGQAKLEQRRQEEALERKKEEARRRRREVKRRLLEELASTPPRKSARLLLHTPRDAGPAASRPAALPTSRRVPAATLKLRRQPAMAPGVTGLRNLGNTCYMNSILQVLSHLQKFRECFLNLDPSKTEHLFPKATNGKTQLSGKPTNSSATELSLRNDRAEACEREGFCWNGRASISRSLELIQNKEPSSKHISLCRELHTLFRVMWSGKWALVSPFAMLHSVWSLIPAFRGYDQQDAQEFLCELLHKVQQELESEGTTRRILIPFSQRKLTKQVLKVVNTIFHGQLLSQVTCISCNYKSNTIEPFWDLSLEFPERYHCIEKGFVPLNQTECLLTEMLAKFTETEALEGRIYACDQCNSKRRKSNPKPLVLSEARKQLMIYRLPQVLRLHLKRFRWSGRNHREKIGVHVVFDQVLTMEPYCCRDMLSSLDKETFAYDLSAVVMHHGKGFGSGHYTAYCYNTEGGFWVHCNDSKLNVCSVEEVCKTQAYILFYTQRTVQGNARISETHLQAQVQSSNNDEGRPQTFS
B11: WNT3A (protein, UniProt P56704 19-352, looked up)
Protein Wnt-3a: SYPIWWSLAVGPQYSSLGSQPILCASIPGLVPKQLRFCRNYVEIMPSVAEGIKIGIQECQHQFRGRRWNCTTVHDSLAIFGPVLDKATRESAFVHAIASAGVAFAVTRSCAEGTAAICGCSSRHQGSPGKGWKWGGCSEDIEFGGMVSREFADARENRPDARSAMNRHNNEAGRQAIASHMHLKCKCHGLSGSCEVKTCWWSQPDFRAIGDFLKDKYDSASEMVVEKHRESRGWVETLRPRYTYFKVPTERDLVYYEASPNFCEPNPETGSFGTRDRTCNVSSHGIDGCDLLCCGRGHNARAERRREKCRCVFHWCCYVSCQECTRVYDVHTCK
B12: VENTX (protein, UniProt O95231 1-258, looked up)
Homeobox protein VENTX: MRLSSSPPRGPQQLSSFGSVDWLSQSSCSGPTHTPRPADFSLGSLPGPGQTSGAREPPQAVSIKEAAGSSNLPAPERTMAGLSKEPNTLRAPRVRTAFTMEQVRTLEGVFQHHQYLSPLERKRLAREMQLSEVQIKTWFQNRRMKHKRQMQDPQLHSPFSGSLHAPPAFYSTSSGLANGLQLLCPWAPLSGPQALMLPPGSFWGLCQVAQEALASAGASCCGQPLASHPPTPGRPSLGPALSTGPRGLCAMPQTGDAF

What follows are molecules tested on HEK293FT cells transfected with TF library (assay: Screening of TF condensates based on fluorescent puncta). Settings: Figure 1B numerical data; TF library screen, one value per transcriptional factor.
Format: cell-based
Method in brief: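 Condensate formation is scored as Alexa 488-labelled puncta after Flag- or GAL4-tag immunostaining of fixed HEK293FT cells expressing individual TFs, with a 12 h glucose-free or glucose-containing culture preceding fixation.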

First: B1
Second: B2
The “Z score of condensed fraction” value of the first is higher: 1.84 for the first, -0.3977 for the second.

First: B3
Second: B4
The “Z score of condensed fraction” value of the first is lower: -0.3287 for the first, 0.7838 for the second.

First: B5
Second: B6
The “Z score of condensed fraction” value of the first is lower: -0.9394 for the first, -0.2141 for the second.

First: B7
Second: B8
The “Z score of condensed fraction” value of the first is higher: 0.5078 for the first, -0.959 for the second.

First: B9
Second: B10
The “Z score of condensed fraction” value of the first is higher: 3.145 for the first, -0.174 for the second.

Going from B11 to B12, the “Z score of condensed fraction” value rises from -0.5314 to -0.4099.
